Like-named read-outs stand apart in the source and are kept apart here.
Experiments:
[1] = cited from earlier work
[2] = cited from earlier work; for storage time after reconstitution: reconstituted with 0.9% benzyl alcohol
[3] = Level of inclusion of guest protein/peptide in host crystals (labeled-insulin/lactose crystals dissolved in PBS and analyzed by HPLC); format: physicochemical; conditions: rhodamine-labeled glucagon in α-lactose monohydrate crystals
Procedure: To investigate the potential for incorporation of a biopharmaceutical into crystals of biocompatible excipients, studies were conducted using rhodamine-labeled glandular glucagon and lactose. As in the previous studies, the rhodamine label was used to facilitate the visualization of glucagon in the host crystals. Typical crystal growth conditions involved the addition of 5 volumes of a supersaturated solution of deionized α-lactose monohydrate to 1 volume of an approximately 1.5 mg/mL (approximately 300 to 400 μmole) of rhodamine-labeled glucagon in purified water. The mixed solution was allowed to stand at room temperature in a 24-well plate.

[4] = vs. 2% in placebo; cited from earlier work

Actimmune
activity ([1]; interferon gamma-1b): dimeric form in solution, activity or 30 million units/mg.

Activase
activity ([1]; T-PA glycoprotein): 580,000 IU/mg. | time diluted solution can be held ([2]; 1 mg/mL solution diluted 1:1 with 0.9% NaCl or D5W, room temperature): 8 h | effect of preservatives on the product ([2]; preserved water or addition of preservatives): precipitation

Leukine
specific activity ([1]; GM-CSF): Additional Information: Specific activity is 5 × 10^7 colony forming units per mg protein. Sargramostim | storage time after reconstitution ([2]; refrigerated temperatures): < 20 days | reconstituted solution stable for ([2]; reconstituted with sterile water, refrigerated temperatures): < 6 h

Protropin
storage time after reconstitution ([2]; refrigerated temperatures): stored at refrigerated temperature, the reconstituted product is good for 14 days at refrigerated

rhodamine-labeled glucagon: glandular glucagon carrying a rhodamine label to visualize it in the host crystals
level of inclusion [3]: approximately 0.1 % (w/w)

B1: Actimmune (protein, UniProt P01579 24-161, looked up)
Interferon gamma: QDPYVKEAENLKKYFNAGHSDVADNGTLFLGILKNWKEESDRKIMQSQIVSFYFKLFKNFKDDQSIQKSVETIKEDMNVKFFNSNKKKRDDFEKLTNYSVTDLNVQRKAIHELIQVMAELSPAAKTGKRKRSQMLFRG
modifications: interferon gamma-1b
injection site irritation [4]: Additional Information: 14% injection site irritation vs. 2% in placebo. Cost $140 for 50 μg.

Reference: patent US7001892B1, “Pharmaceutical materials and methods for their preparation and use” (Purdue Research Foundation, priority 1999, dated 2006)
